Assay results reported in US20030134292A1, “Thermostable DNA polymerases and methods of making same” (priority 2001, published 2003).

Tested on: activated salmon sperm DNA
Assay: Specific DNA polymerase activity of enzymes purified and assayed with or without Tween 20 and NP-40
Format: biochemical
Experimental: In one embodiment of the present invention, Taq Δ271 F667Y, and Taq Δ271 F667Y E681W were purified with or without detergents NP-40 & Tween-20. The butyl Sepharose chromatography elution profile for polymerase extracted without detergents was essentially identical to the profile for polymerase extracted with Tween 20 and NP-40.
DNA polymerase activity was measured by running reactions of 50 μL containing 25 mM TAPS (tris-hydroxymethyl-methylaminopropane sulfonic acid) buffer, pH 9.3 (measured at 25° C.), 50 mM KCl, 2 mM MgCl2, 1 mM 2-mercaptoethanol, 0.2 mM each of dGTP, dCTP, dTTP, 0.2 mM [α-^33P]-dATP (0.05-0.1 Ci/mmol) and 0.4 mg/mL activated salmon sperm DNA. The reaction mixture (45 μL) was pre-heated to 74° C. and diluted polymerase (5 μL) added with thorough mixing. After 10 minutes of further incubation at 74° C., the reaction was stopped by the addition of 10 μL of 60 mM EDTA and the entire mixture placed at 0° C. Acid-precipitable radioactivity was determined on an aliquot ([…]) by diluting with 1 ml of 2 mM EDTA containing 0.05 mg/ml salmon sperm DNA and adding 1 mL of 20% (w/v) trichloroacetic acid, 2% (w/v) sodium pyrophosphate (Na4P2O7 10H2O) and incubating on ice for at least 15 minutes. Precipitated DNA was collected by filtering through 2.4 cm GFC filter disks (Schleichter and Schuell) and washed 7 times with 5ml of with 1 N HCl, 0.1 M sodium pyrophosphate. The filter was placed in 3 ml of aqueous scintillation counting fluid and ^33P-specific radioactivity determined by scintillation counting.

[1] = detergent in purification: 0.1% Tween 20, 0.1% NP-40, detergent in assay: 0.1% Tween 20, 0.1% NP-40 (reference, 100%)
[2] = detergent in purification: 0.1% Tween 20, 0.1% NP-40, detergent in assay: None
[3] = detergent in purification: None, detergent in assay: 0.1% Tween 20, 0.1% NP-40
[4] = detergent in purification: None, detergent in assay: None, 100% = polymerase purified and assayed using Tween 20 and NP-40

Molecule | Assay (%*) specific activity [1] [%] | Assay (%*) specific activity [2] [%] | Assay (%*) specific activity [3] [%] | Assay (%*) specific activity [4] [%]
Taq Δ271, F667Y, E681W: Taq Δ271 F667Y E681W DNA Polymerase, SEQ ID NO: 12, recombinant thermostable DNA polymerase (protein, listed as Thermus aquaticus) MLERLEFGSLLHEFGLLESPKALEEAPWPPPEGAFVGFVLSRKEPMWADLLALAAARGGRVHRAPEPYKALRDLKEARGLLAKDLSVLALREGLGLPPGDDPMLLAYLLDPSNTTPEGVARRYGGEWTEEAGERAALSERLFANLWGRLEGEERLLWLYREVERPLSAVLAHMEATGVRLDVAYLRALSLEVAEEIARLEAEVFRLAGHPFNLNSRDQLERVLFDELGLPAIGKTEKTGKRSTSAAVLEALREAHPIVEKILQYRELTKLKSTYIDPLPDLIHPRTGRLHTRFNQTATATGRLSSSDPNLQNIPVRTPLGQRIRRAFIAEEGWLLVALDYSQIELRVLAHLSGDENLIRVFQEGRDIHTETASWMFGVPREAVDPLMRRAAKTINYGVLYGMSAHRLSQWLAIPYEEAQAFIERYFQSFPKVRAWIEKTLEEGRRRGYVETLFGRRRYVPDLEARVKSVREAAERMAFNMPVQGTAADLMKLAMVKLFPRLEEMGARML | 100 | 2 | 157 | 6
Taq Δ271, F667Y: Taq Δ271 F667Y DNA Polymerase (Thermo Sequenase), SEQ ID NO: 10, recombinant thermostable DNA polymerase (protein, listed as Thermus aquaticus) MLERLEFGSLLHEFGLLESPKALEEAPWPPPEGAFVGFVLSRKEPMWADLLALAAARGGRVHRAPEPYKALRDLKEARGLLAKDLSVLALREGLGLPPGDDPMLLAYLLDPSNTTPEGVARRYGGEWTEEAGERAALSERLFANLWGRLEGEERLLWLYREVERPLSAVLAHMEATGVRLDVAYLRALSLEVAEEIARLEAEVFRLAGHPFNLNSRDQLERVLFDELGLPAIGKTEKTGKRSTSAAVLEALREAHPIVEKILQYRELTKLKSTYIDPLPDLIHPRTGRLHTRFNQTATATGRLSSSDPNLQNIPVRTPLGQRIRRAFIAEEGWLLVALDYSQIELRVLAHLSGDENLIRVFQEGRDIHTETASWMFGVPREAVDPLMRRAAKTINYGVLYGMSAHRLSQELAIPYEEAQAFIERYFQSFPKVRAWIEKTLEEGRRRGYVETLFGRRRYVPDLEARVKSVREAAERMAFNMPVQGTAADLMKLAMVKLFPRLEEMGARMLLQVHDELVLEAPKERAEAVARLAKEVMEGVYPLAVPLEVEVGIGEDWLSAKE | 100 | 3 | 102 | 5
